Consider five substances from patent US20190191748A1.

The assay deals with moAb G12 conjugated to HRP (peroxidase). Briefly: competitive ELISA, gliadin-coated plate, G12-HRP; reference OM719.
In turn, “avenins (prolamins) extracted from oat variety OA729” displayed a cross-reactivity (CR) = (IC50 of OM719 / IC50 of the variety) x 100 of 75%.

In turn, “avenins (prolamins) extracted from oat variety OC723” gave a cross-reactivity (CR) = (IC50 of OM719 / IC50 of the variety) x 100 of 12%.

For the substance “avenins (prolamins) extracted from oat variety OE717”, the cross-reactivity (CR) = (IC50 of OM719 / IC50 of the variety) x 100 amounted to 60%.

Substance “avenins (prolamins) extracted from oat variety OH727” gave a cross-reactivity (CR) = (IC50 of OM719 / IC50 of the variety) x 100 of 25%. Substance “avenins (prolamins) extracted from oat variety OL715” gave a cross-reactivity (CR) = (IC50 of OM719 / IC50 of the variety) x 100 of 24%.
